# US7541446B2, “Tet repressor-based transcriptional regulatory proteins” (Tet Systems Holding GmbH & Co. KG, priority 1999, dated 2009)
# Columns and labels:
# [1] = tested on: luciferase activity; assay: Doxycycline-dependent regulation of luciferase in HeLa cells, transient transfection of rtTA2-34R^S or rtTA2; format: cell-based
# Source text: The synthetic gene encoding rtTA2-34R^S was cloned into pUHD15-1 and expression was examined in HeLa cells.
# [2] = tested on: tetO DNA; assay: DNA retardation experiment with radioactively labeled tetO DNA; format: binding; settings: produced in HeLa cells; compared with rtTA2
# Source text: Cellular material from cells transfected as described above was also used to compare the binding of rtTA2-34R and rtTA2 (rtTA fused to 3 minimal activation domains) to operator DNA in DNA retardation experiments.
# rtTA2 and rtTA2-34R^S were produced in HeLa cells and exposed to radioactively labeled tetO DNA in presence (+) and absence (−) of Dox.
molecule,measurement,setting,value
"rtTA2-34R^S: first 206 amino acids of rtTA-34R fused to 3 minimal VP-16 activation domains (FFF), synthetic gene with human codon frequencies, SEQ ID NO: 5 (protein) MSRLDKSKVINSALELLNGVGIEGLTTRKLAQKLGVEQPTLYWHVKNKRALLDALPIEMLDRHHTHFCPLEGESWQDFLRNNAKSFRCALLSHRDGAKVHLGTRPTEKQYETLENQLAFLCQQGFSLENALYALSAVGHFTLGCVLEEQEHQVAKEERETPTTDSMPPLLRQAIELFDRQGAEPAFLFGLELIICGLEKQLKCESGGPADALDDFDLDMLPADALDDFDLDMLPADALDDFDLDMLPG",induction in cells treated with Dox,[1],up to 20 fold
same,"luciferase activity in relative light units, + Dox",[1]; + Dox,20.325
same,"luciferase activity in relative light units, − Dox",[1]; − Dox,1
same,residual binding to operator DNA (binding in the absence of Dox),[2],greatly reduced
